B1: Insulin-induced gene 2 protein (Homo sapiens), Q9Y5U4 (parent)
chain: MAEGETESPGPKKCGPYISSVTSQSVNLMIRGVVLFFIGVFLALVLNLLQIQRNVTLFPPDVIASIFSSAWWVPPCCGTASAVIGLLYPCIDRHLGEPHKFKREWSSVMRCVAVFVGINHASAKVDFDNNIQLSLTLAALSIGLWWTFDRSRSGFGLGVGIAFLATVVTQLLVYNGVYQYTSPDFLYVRSWLPCIFFAGGITMGNIGRQLAMYECKVIAEKSHQE
partner: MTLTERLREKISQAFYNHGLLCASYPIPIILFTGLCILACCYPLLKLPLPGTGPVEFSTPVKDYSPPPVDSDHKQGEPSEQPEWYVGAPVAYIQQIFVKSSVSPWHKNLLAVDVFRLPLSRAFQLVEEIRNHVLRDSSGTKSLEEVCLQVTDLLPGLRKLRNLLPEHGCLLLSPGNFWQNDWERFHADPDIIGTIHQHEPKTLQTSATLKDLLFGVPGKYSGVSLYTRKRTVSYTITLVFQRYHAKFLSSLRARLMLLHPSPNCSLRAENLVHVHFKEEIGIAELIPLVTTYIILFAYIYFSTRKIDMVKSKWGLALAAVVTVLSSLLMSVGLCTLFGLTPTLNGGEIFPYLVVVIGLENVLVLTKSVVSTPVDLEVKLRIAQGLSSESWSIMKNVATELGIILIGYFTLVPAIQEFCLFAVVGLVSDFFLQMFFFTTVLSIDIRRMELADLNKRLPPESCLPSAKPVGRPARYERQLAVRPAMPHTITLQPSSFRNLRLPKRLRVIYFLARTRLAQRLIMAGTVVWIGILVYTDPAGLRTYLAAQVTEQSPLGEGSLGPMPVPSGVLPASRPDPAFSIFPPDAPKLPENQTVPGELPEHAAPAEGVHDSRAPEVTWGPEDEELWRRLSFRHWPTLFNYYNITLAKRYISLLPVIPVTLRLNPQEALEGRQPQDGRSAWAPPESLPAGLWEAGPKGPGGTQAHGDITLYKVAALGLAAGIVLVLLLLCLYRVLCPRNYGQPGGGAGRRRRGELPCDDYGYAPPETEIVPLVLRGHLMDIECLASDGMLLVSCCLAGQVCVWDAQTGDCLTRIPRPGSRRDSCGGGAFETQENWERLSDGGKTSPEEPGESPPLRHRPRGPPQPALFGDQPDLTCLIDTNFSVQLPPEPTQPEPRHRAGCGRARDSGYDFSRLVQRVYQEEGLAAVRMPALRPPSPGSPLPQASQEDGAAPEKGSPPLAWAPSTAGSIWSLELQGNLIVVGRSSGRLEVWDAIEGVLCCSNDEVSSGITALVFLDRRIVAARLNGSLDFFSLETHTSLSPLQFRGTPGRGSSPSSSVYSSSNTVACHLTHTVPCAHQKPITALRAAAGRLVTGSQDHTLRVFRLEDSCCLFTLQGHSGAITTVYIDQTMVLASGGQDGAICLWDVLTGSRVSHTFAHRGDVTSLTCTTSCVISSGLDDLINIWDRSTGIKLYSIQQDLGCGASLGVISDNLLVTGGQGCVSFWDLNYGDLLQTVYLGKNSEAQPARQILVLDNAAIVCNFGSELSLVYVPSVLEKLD

Variants of: B1
Settings: with scap_crigr SCAP

Row | effect of a mutation on the interaction | Variant
1 | decreasing interaction strength | MAEGETESPGPKKCGPYISSVTSQSVNLMIRGVVLFFIGVFLALVLNLLQIQRNVTLFPPDVIASIFSSAWWVPPCCGTASAVIGLLYPCIDRHLGEPHKFKREWSSVMRCVAVFVGINHASAKVDFDNNIQLSLALAALSIGLWWTFDRSRSGFGLGVGIAFLATVVTQLLVYNGVYQYTSPDFLYVRSWLPCIFFAGGITMGNIGRQLAMYECKVIAEKSHQE [T136A]
2 | disrupting interaction strength | MAEGETESPGPKKCGPYISSVTSQSVNLMIRGVVLFFIGVFLALVLNLLQIQRNVTLFPPDVIASIFSSAWWVPPCCGTASAVIGLLYPCIDRHLGEPHKFKREWSSVMRCVAVAVGINHASAKVDFDNNIQLSLTLAALSIGLWWTFDRSRSGFGLGVGIAFLATVVTQLLVYNGVYQYTSPDFLYVRSWLPCIFFAGGITMGNIGRQLAMYECKVIAEKSHQE [F115A]

Reference: IntAct's records for PubMed 17428920
